From paper PMC10920922 come the findings set out here.

Assay [1] has as its target TaSG-D1^E286K-GFP (Indian dwarf wheat (Triticum sphaerococcum)).
Assay [2] deals with TaSG-D1-GFP (wheat (Triticum aestivum)).

As for TaPIF4-Myc (natural protein), in assay [1], the share of TaPIF4 associated with and protected by the kinase after 3 h heat stress: TaPIF4 protein still detectable on co-transformation in N. benthamiana leaves (88%) less that of the control (12%) is 76%. In assay [2], the share of TaPIF4 associated with and protected by the kinase after 3 h heat stress: TaPIF4 protein still detectable on co-transformation in N. benthamiana leaves (23%) less that of the control (12%) was 11%.
